Measured values: patent publication US20260242487A1

Assays:
[1] = target: human FGFR2c expressed on CHOK1 cells (human) (UniProt P21802); assay: flow cytometry on CHOK1 cells expressing hFGFR2c, detection with APC anti-human IgG Fc
[2] = target: hFGFR2b-Fc (Kactus, Catalog #FGR-HM2BB) (human) (UniProt P21802); assay: epitope binning ELISA: competing Ab FPA144 in solution with biotin-hFGFR2b-Fc; competitor (column, coated) FPA144
[3] = target: hFGFR2b-Fc (Kactus, Catalog #FGR-HM2BB) (human) (UniProt P21802); assay: epitope binning ELISA: competing Ab FPA144 in solution with biotin-hFGFR2b-Fc; competitor (column, coated) HC18
[4] = target: hFGFR2b-Fc (Kactus, Catalog #FGR-HM2BB) (human) (UniProt P21802); assay: competition ELISA: inhibition of FGF7-his binding to coated hFGFR2b-Fc
[5] = target: hFGFR2b-Fc (Kactus, Catalog #FGR-HM2BB) (human) (UniProt P21802); assay: competition ELISA: inhibition of biotin-FGF10 binding to coated hFGFR2b-Fc
[6] = target: human FGFR2b expressed on cells (hFGFR2b-expressing CHOK1 cells; Ba/F3 cells expressing full-length human FGFR2b) (human) (UniProt P21802); assay: flow cytometry on CHOK1 cells expressing hFGFR2b, detection with APC anti-human IgG Fc
human FGFR2b expressed on cells (hFGFR2b-expressing CHOK1 cells; Ba/F3 cells expressing full-length human FGFR2b) (human), sequence (P21802 other isoform, or with tags, fused parts or gaps): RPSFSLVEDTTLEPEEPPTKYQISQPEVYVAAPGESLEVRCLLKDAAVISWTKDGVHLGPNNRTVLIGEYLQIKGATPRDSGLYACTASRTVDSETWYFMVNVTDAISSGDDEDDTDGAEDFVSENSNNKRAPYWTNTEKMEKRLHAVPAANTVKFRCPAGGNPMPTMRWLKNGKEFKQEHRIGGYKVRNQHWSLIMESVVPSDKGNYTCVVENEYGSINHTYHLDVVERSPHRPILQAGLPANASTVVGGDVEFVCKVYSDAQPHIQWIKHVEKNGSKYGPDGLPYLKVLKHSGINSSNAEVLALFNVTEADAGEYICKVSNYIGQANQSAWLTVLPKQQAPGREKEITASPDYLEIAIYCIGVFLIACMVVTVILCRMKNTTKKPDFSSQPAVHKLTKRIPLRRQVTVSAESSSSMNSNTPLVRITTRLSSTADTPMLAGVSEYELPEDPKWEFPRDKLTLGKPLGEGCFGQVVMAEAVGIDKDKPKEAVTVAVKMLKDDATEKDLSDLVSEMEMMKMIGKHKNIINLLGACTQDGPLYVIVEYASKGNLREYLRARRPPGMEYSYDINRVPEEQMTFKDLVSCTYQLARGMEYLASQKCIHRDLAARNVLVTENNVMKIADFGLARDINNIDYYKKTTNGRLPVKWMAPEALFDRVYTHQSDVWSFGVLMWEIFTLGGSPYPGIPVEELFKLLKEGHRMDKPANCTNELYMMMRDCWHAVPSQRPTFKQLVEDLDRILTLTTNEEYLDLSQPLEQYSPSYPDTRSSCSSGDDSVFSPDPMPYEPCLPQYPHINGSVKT

hFGFR2b-Fc (Kactus, Catalog #FGR-HM2BB) (human), sequence (P21802 other isoform, or with tags, fused parts or gaps): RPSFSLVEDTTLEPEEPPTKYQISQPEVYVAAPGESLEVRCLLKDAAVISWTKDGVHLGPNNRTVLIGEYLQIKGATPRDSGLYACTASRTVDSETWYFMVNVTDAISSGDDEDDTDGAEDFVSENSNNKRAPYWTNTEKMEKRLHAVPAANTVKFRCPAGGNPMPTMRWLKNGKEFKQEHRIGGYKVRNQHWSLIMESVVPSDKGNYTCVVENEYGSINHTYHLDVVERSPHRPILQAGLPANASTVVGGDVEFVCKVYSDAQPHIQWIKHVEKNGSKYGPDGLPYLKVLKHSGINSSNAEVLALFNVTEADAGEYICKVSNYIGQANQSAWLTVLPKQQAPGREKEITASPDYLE
human FGFR2c expressed on CHOK1 cells (human), sequence (P21802 22-821): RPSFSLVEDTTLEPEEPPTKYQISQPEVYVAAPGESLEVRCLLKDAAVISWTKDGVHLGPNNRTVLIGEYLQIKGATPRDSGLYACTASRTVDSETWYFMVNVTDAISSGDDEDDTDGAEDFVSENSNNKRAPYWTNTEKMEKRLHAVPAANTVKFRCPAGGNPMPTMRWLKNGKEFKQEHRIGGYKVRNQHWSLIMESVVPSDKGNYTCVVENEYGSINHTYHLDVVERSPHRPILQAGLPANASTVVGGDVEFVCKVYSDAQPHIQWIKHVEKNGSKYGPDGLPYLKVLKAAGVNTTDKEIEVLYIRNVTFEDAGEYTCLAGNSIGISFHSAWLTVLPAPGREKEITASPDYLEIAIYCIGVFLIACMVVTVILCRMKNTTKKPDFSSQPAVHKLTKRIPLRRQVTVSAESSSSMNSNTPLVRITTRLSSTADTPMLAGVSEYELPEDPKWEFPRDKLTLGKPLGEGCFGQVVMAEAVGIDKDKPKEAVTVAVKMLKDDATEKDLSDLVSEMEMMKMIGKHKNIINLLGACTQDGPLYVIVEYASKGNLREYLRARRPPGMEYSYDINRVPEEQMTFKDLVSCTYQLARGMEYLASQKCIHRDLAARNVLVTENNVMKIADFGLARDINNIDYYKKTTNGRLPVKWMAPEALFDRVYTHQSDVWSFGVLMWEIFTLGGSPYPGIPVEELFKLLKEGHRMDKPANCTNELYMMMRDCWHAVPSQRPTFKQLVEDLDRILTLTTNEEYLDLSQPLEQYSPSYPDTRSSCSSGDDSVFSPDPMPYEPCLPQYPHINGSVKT

| EC50 (read off the curve) [1] [nM] | percent competition (epitope binning; value not given) [2] [%] | percent competition (epitope binning; value not given) [3] [%] | IC50 [4] [nM] | Inhibition (%) [4] [%] | ODmin [4] [OD] | IC50 [5] [nM] | Inhibition (%) [5] [%] | ODmin [5] [OD] | EC50 (read off the curve) [6] [nM] | Binder |
| --- | --- | --- | --- | --- | --- | --- | --- | --- | --- | --- |
| 1 |  |  |  |  |  |  |  |  |  | Aprutumab (antibody, INN chains, looked up, V domains shown) VH: EVQLLESGGGLVQPGGSLRLSCAASGFTFSSYAMSWVRQAPGKGLEWVSAISGSGTSTYYADSVKGRFTISRDNSKNTLYLQMNSLRAEDTAVYYCARVRYNWNHGDWFDPWGQGTLVTVSS VL: QSVLTQPPSASGTPGQRVTISCSGSSSNIGNNYVSWYQQLPGTAPKLLIYENYNRPAGVPDRFSGSKSGTSASLAISGLRSEDEADYYCSSWDDSLNYWVFGGGTKLTVL |
|  | 98 | 98 | 2.4 | 100 | 0.172 | 6.65 | 100 | 0.496 | 0.2 | FPA144 (antibody, INN chains, looked up, V domains shown) VH: QVQLVQSGAEVKKPGSSVKVSCKASGYIFTTYNVHWVRQAPGQGLEWIGSIYPDNGDTSYNQNFKGRATITADKSTSTAYMELSSLRSEDTAVYYCARGDFAYWGQGTLVTVSS VL: DIQMTQSPSSLSASVGDRVTITCKASQGVSNDVAWYQQKPGKAPKLLIYSASYRYTGVPSRFSGSGSGTDFTFTISSLQPEDIATYYCQQHSTTPYTFGQGTKLEIK |
